Test results: article PMC7359353, “Rab27a co-ordinates actin-dependent transport by controlling organelle-associated motors and track assembly proteins” (Nature Communications, 2020)
Read-outs that look alike come from different tables or passages of the source.

Assays:
[1] = biological target: myosin-Va GTD (Homo sapiens) (UniProt Q9Y4I1); settings: cited from earlier work
[2] = biological target: myosin-Va GTD (Homo sapiens) (UniProt Q9Y4I1); settings: cited from earlier work; remark: listed apart in the source
Mlph RBD (Homo sapiens) = Mlph RBD (Homo sapiens) (UniProt Q9BV36); settings: cited from earlier work
Chain of Mlph RBD (Homo sapiens) (Q9BV36 4-124): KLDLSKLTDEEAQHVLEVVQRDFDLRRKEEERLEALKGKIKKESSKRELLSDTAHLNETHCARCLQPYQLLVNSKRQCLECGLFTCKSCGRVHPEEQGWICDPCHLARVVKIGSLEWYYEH

GST-Rab27a-Q78L = biological target: T1, GST-Rab27a-Q78L (UniProt P23640 1-221, Q78L); experiment: pull-down; quantitative GST pull-down: increasing concentrations of GST-Rab27a-Q78L on beads, HEK293 lysate (GFP-SPIRE1-MSFH ~50 nM); GFP depletion from the supernatant measured by fluorospectrometry at 20 °C; fraction bound fitted for Kd
T1 construct: Rab27a; rat Rab27a is stated only for the BiFC constructs; also called GTP-locked Rab27a-Q78L; active Rab27a-Q78L; source: E. coli Rosetta, purified (GSH-Sepharose 4B, size-exclusion chromatography)
T1 sequence (looked up): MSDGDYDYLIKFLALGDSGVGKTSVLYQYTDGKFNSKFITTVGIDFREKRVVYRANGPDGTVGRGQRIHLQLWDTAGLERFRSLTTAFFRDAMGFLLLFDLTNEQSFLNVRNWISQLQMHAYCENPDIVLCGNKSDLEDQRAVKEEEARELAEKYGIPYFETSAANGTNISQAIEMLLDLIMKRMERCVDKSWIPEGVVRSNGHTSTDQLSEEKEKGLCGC

vYCE-Rab27a Q78L = biological target: T2, vYCE-Rab27a Q78L (rat, UniProt P23640 1-221, Q78L); experiment: split reporter (BiFC, NanoBiT); BiFC in living HEK293a cells: vYNE-SPIRE1/2 and vYCE-Rab27a co-expressed with mCherry; vYFP signal normalised to mCherry, 48 h after transfection; settings: partners not purified
T2 construct: rat Rab27a; also called Q78L mutant; source: HEK293a, transfected, in living cells
T2 sequence (looked up): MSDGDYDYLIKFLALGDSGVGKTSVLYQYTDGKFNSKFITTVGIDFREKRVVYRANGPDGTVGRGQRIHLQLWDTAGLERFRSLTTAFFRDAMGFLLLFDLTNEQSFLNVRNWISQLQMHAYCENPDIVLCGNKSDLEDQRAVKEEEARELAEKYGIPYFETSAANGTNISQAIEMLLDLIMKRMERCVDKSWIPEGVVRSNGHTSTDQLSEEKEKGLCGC

vYCE-Rab27a wild type = biological target: T3, vYCE-Rab27a wild type (rat, UniProt P23640 1-221); experiment: as above; settings: partners not purified
T3 construct: rat Rab27a; also called wild-type Rab27a; WT; source: HEK293a, transfected, in living cells
T3 sequence (looked up): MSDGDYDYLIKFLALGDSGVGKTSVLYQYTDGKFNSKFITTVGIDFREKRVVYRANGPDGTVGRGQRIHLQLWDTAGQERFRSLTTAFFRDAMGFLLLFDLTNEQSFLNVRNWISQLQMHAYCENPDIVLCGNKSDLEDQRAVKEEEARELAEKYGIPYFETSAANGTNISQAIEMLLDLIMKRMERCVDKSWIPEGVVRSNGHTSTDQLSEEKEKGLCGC

Chain of myosin-Va GTD (Homo sapiens) (Q9Y4I1 1448-1855): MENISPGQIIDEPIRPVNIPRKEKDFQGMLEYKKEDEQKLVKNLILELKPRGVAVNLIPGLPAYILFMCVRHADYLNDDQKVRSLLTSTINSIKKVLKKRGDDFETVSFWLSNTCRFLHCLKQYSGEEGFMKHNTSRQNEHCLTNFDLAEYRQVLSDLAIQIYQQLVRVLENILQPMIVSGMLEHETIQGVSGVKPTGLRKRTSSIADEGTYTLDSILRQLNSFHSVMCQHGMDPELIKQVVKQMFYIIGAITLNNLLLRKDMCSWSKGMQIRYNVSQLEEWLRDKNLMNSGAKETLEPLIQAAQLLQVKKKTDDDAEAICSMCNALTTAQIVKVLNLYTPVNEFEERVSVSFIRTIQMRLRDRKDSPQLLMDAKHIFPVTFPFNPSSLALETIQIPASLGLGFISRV

Question: With Mlph (from UniProt Q9BV36) as the molecule, how does the Kd [1] read?
Answer: 500 nM

Question: Which Kd [2] does the source give for SPIRE2 (from UniProt Q8WWL2) here?
Answer: 900 nM

Question: With Rab27a (from UniProt P51159) as the molecule, how does the Kd (Mlph RBD (Homo sapiens)) read?
Answer: 112 nM

Question: With GFP-Mlph-RBD (domain or fragment) as the molecule, how does the Kd (GST-Rab27a-Q78L) read?
Answer: 143 nM

B1: vYNE-SPIRE1 (natural protein, human, UniProt Q08AE8-2 1-742, looked up)
chain: MAQAAGPAGGGEPRTEAVGGEGPREPGAAGGAAGGSRDALSLEEILRLYNQPINEEQAWAVCYQCCGSLRAAARRRQPRHRVRSAAQIRVWRDGAVTLAPAADDAGEPPPVAGKLGYSQCMETEVIESLGIIIYKALDYGLKENEERELSPPLEQLIDHMANTVEADGSNDEGYEAAEEGLGDEDEKRKISAIRSYRDVMKLCAAHLPTESDAPNHYQAVCRALFAETMELHTFLTKIKSAKENLKKIQEMEKSDESSTDLEELKNADWARFWVQVMRDLRNGVKLKKVQERQYNPLPIEYQLTPYEMLMDDIRCKRYTLRKVMVNGDIPPRLKKSAHEIILDFIRSRPPLNPVSARKLKPTPPRPRSLHERILEEIKAERKLRPVSPEEIRRSRLDVTTPESTKNLVESSMVNGGLTSQTKENGLSTSQQVPAQRKKLLRAPTLAELDSSESEEETLHKSTSSSSVSPSFPEEPVLEAVSTRKKPPKFLPISSTPQPERRQPPQRRHSIEKETPTNVRQFLPPSRQSSRSLEEFCYPVECLALTVEEVMHIRQVLVKAELEKYQQYKDIYTALKKGKLCFCCRTRRFSFFTWSYTCQFCKRPVCSQCCKKMRLPSKPYSTLPIFSLGPSALQRGESSMRSEKPSTAHHRPLRSIARFSSKSKSMDKSDEELQFPKELMEDWSTMEVCVDCKKFISEIISSSRRSLVLANKRARLKRKTQSFYMSSPGPSEYCPSERTISEI
notes: human SPIRE1, cDNA NM_020148.2; also called SPIRE1 (BiFC); source: HEK293a, transfected, in living cells; not shown: enhanced Venus YFP N-terminus fragment (amino acids 1-173)
Question: What does the source list for B1?
Answer: mean normalised BiFC (% max) (vYCE-Rab27a Q78L): 75.2 % max; mean normalised BiFC (% max) (vYCE-Rab27a wild type): 89.3 % max

B2: vYNE-SPIRE2 (natural protein, human, UniProt Q8WWL2 1-714, looked up)
chain: MARAGSCGGAAAGAGRPEPWELSLEEVLKAYEQPLNEEQAWAVCFQGCRGLRGSPGRRLRDTGDLLLRGDGSVGAREPEAAEPATMVVPLASSEAQTVQSLGFAIYRALDWGLDESEERELSPQLERLIDLMANNDSEDSGCGAADEGYGGPEEEEEAEGVPRSVRTFAQAMRLCAARLTDPRGAQAHYQAVCRALFVETLELRAFLARVREAKEMLQKLREDEPHLETPRAELDSLGHTDWARLWVQLMRELRRGVKLKKVQEQEFNPLPTEFQLTPFEMLMQDIRARNYKLRKVMVDGDIPPRVKKDAHELILDFIRSRPPLKQVSERRLRPLPPKQRSLHEKILEEIKQERRLRPVRGEGWAARGFGSLPCILNACSGDAKSTSCINLSVTDAGGSAQRPRPRVLLKAPTLAEMEEMNTSEEEESPCGEVTLKRDRSFSEHDLAQLRSEVASGLQSATHPPGGTEPPRPRAGSAHVWRPGSRDQGTCPASVSDPSHPLLSNRGSSGDRPEASMTPDAKHLWLEFSHPVESLALTVEEVMDVRRVLVKAEMEKFLQNKELFSSLKKGKICCCCRAKFPLFSWPPSCLFCKRAVCTSCSIKMKMPSKKFGHIPVYTLGFESPQRVSAAKTAPIQRRDIFQSLQGPQWQSVEEAFPHIYSHGCVLKDVCSECTSFVADVVRSSRKSVDVLNTTPRRSRQTQSLYIPNTRTLDFK
notes: human SPIRE2, cDNA AJ422077; also called SPIRE2 (BiFC); source: HEK293a, transfected, in living cells; not shown: enhanced Venus YFP N-terminus fragment (amino acids 1-173)
Question: Which “mean normalised BiFC (% max)” value (vYCE-Rab27a Q78L) does the source give for B2 here?
Answer: 85.2 % max

Question: And the “mean normalised BiFC (% max)” value (vYCE-Rab27a wild type)?
Answer: 85.4 % max

B3: GFP-SPIRE1-MSFH (domain or fragment)
chain: PEEIRRSRLDVTTPESTKNLVESSMVNGGLTSQTKENGLSTSQQVPAQRKKLLRAPTLAELDSSESEEETLHKSTSSSSVSPSFPEEPVLEAVSTRKKPPKFLPISSTPQPERRQPPQRRHSIEKETPTNVRQFLPPSRQSSRSLEEFCYPVECLALTVEEVMHIRQVLVKAELEKYQQYKDIYTALKKGKLCFCCRTRRFSFFTWSYTCQFCKRPVCSQCCKKMRLPSKPYSTLPIFSLGPSALQRGESSMRSEKPSTAHHRPLRSIARFSSKSKSMDKSDEELQFPKELMEDWSTMEVCVDCKKFISEIISSSRRSLVLANKRARLKRKTQSFYMSSPGPSEYCPSERTISEI
modifications: Limits are not in the text (Fig. 6a / Supplementary Table 9). By convention, the start is just after the last WH2 (ends at 386) and the end is the C-terminus. NM_020148.2 is taken as the 742-aa …
Question: For B3, which Kd (GST-Rab27a-Q78L; one partner purified) is on record?
Answer: 707 ± 155 nM
